Results: patent US20230374114A1 (published 2023)

B1: Ab 25 scFv-Fc (scFv, V domains shown)
VH: QVQLVQSGGGLVQPGGSLRLSCAASGFTFSSYWMSWVRQAPGKGLEWVANIKQDGSEKYYVDSVKGRFTISRDNAKNSLYLQMNSLRAEDTAVYYCARGFYYYGAFDIWGQGTTVTVSS
VL: NFMLTQPHSVSESPGKTVTISCTGSSGSIASNYVQWYQQRPGSAPTTVIYEDNQRPSGVPDRFSGSIGSSSNSASLTISGLKTEDEADYYCQSYDSSNHWVFGGGTKLTVL
B2: Ab 28 scFv-Fc (scFv, V domains shown)
VH: QVTLKESGPGLVNPSETLSLTCTVSGASISNSFWSWIRQSPGKGLEWIGYTSYSGNSIYNPSLKSRLTMSIDTSKNQLSLNLRSLTAADTAVYYCARREWIKGHFDYWGQGTLVTVSS
VL: NFMLTQPHSVSESPGKTVTISCTGSGGSIASNYVQWYQQRPGSAPTTVIYEDNQRPSGVPDRFSGSIDSSSNSASLTISGLKTEDEADYYCQSYDSSNPVVFGGGTKLTVL
B3: Ab 20 (scFv, V domains shown)
VH: QVQLVQSGGGSVKPGGSLRLSCAASGYRLSDYYMHWVRQAPGKGLEWVANIKQDGSEKYYVDSVKGRFTISRDNAKNSLYLQMNSLRAEDTAVYYCARVRGWSRGYFDYWGQGTLVTVSS
VL: NFMLTQPHSVSESPGKTVTISCTGSSGSIASNYVQWYQQRPGSAPTTVIYEDNQRPSGVPDRFSGSIDSSSNSASLLISGLKTEDEADYYCQSYDSSNHWVFGGGTKLTVL
B4: Ab 21 (scFv, V domains shown)
VH: QVQLVQSGGGLVQPGGSLRLSCATSGFTFDDYAMHWVRQAPGKGLEWVSGISWNSGSIGYVDSVKGRFTISRDNRNNKVYLQMNNLRAEDTAVYYCARDWWGSIDHWGLGTLVTVSS
VL: QSALTQPRSVSGSPGQSVTISCTGTSSDVGGYDYVSWYQQHPGKAPKLIIYDVSKRPSGVPDRFSGSKSGNTASLTVSGLQAEDEADYYCSSYTSSSPVVFGGGTKLTVL
B5: Ab_17 (scFv, V domains shown)
VH: QVQLVQSGGGVVQPGRSLRLSCAASGFTFDDYAMHWVRQVPGKGLEWVSGIDWNSGVIGYADSVKGRFTISRDNVKNSLYLQMNSLRTEDSALYYCAKDIGPGGSGSYYAFDIWGQGTTVTVSS
VL: QSALTQPASVSGSPGQSITISCTGTSSDVGGSKYVSWYQQHPGKAPKVMIYDVTKRPSGVPDRFSGSKSGNTASLTISGLQAEDEADYYCAAWDDSLNGVVFGGGTKLTVL
B6: Ab 14 scFv-Fc (scFv, V domains shown)
VH: QVQLQQSGPGLVKPSQTLSLTCAISGDSVSSNSAAWNWIRQSPARGLEWLGRTYYRSRWYNDYAISMKSRITINPDTSKNQFSLQLESVTPEDTAVYYCAREIRGFDYWGQGTLVTVSS
VL: QSVLTQPPSASGSPGQSVTISCTGTSSDVGAYNFVSWYQHHPGKAPKLIIYDFNKRPSGVPDRFSGSKSGNTASLTVSGLQADDEADYYCSSYAGSNNFDVVFGGGTKLTVL
B7: Ab 15 scFv-Fc (scFv, V domains shown)
VH: QVQLVQSGGGLVKPGRSLRLSCTASGFTFGDYAMSWFRQAPGKGLEWVGFIRSKAYGGTTGYAASVKGRFTISRDDSKSIAYLQMNSLKTEDTAVYYCTTADDDMDVWGKGTTVTVSS
VL: NFMLTQPHSVSESPGKTVTISCTRSSGTIASNYVQWYQQRPGSAPTTVIYEDNQRPSGVPDRFSGSIDRSSNSASLTISGLTPDDEADYYCQSYDTSNHYVFGTGTKVTVL
B8: Ab_13 (scFv, V domains shown)
VH: QVTLKESGPKLVKPTQTLTLTCTFSGFSLSTSGVGVGWIRQPPGKALEWLALIYWDDDKRYSPSLKSRLTIAKDTSKYQVVLTMTNMDPVDTATYYCARISGSGYFYPFDIWGQGTMVTVSA
VL: NFMLTQPHSVSESPGKTVTISCTRSSGSIASNYVQWYQQRPGSAPTTVIYEDNQRPSGVPDRFSGSIDSSSNSASLTISGLKTEDEADYYCQSYDSSNLWVFGGGTKLTVL
B9: Ab 12 Fab (Fab, V domains shown)
VH: EVQLVESGPGVVSPSATLFLTCSVSGGSIRTHSWNWIRQPPGKPLEWIGFIHHSGATNKNPSLKSRVTISSDTSKNEFSLTLTSVTAADTAVYYCARGPGILSYWSRGTLVTVSS
VL: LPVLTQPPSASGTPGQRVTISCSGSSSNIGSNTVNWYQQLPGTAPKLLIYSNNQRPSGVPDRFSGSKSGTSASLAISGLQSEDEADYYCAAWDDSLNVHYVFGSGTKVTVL
B10: Ab 12 IgG (antibody, V domains shown)
VH: EVQLVESGPGVVSPSATLFLTCSVSGGSIRTHSWNWIRQPPGKPLEWIGFIHHSGATNKNPSLKSRVTISSDTSKNEFSLTLTSVTAADTAVYYCARGPGILSYWSRGTLVTVSS
VL: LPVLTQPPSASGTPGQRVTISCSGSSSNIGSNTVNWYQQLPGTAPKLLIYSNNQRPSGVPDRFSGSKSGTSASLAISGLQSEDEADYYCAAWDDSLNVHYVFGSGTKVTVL
B11: Ab 12 scFv-Fc (S1-R3-T1-H7) (scFv, V domains shown)
VH: EVQLVESGPGVVSPSATLFLTCSVSGGSIRTHSWNWIRQPPGKPLEWIGFIHHSGATNKNPSLKSRVTISSDTSKNEFSLTLTSVTAADTAVYYCARGPGILSYWSRGTLVTVSS
VL: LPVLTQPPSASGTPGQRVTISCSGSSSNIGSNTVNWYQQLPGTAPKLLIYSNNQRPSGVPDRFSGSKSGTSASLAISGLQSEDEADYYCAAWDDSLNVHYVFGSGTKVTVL
B12: Ab 23 scFv-Fc (scFv, V domains shown)
VH: EVQLVQSGAEVKKPGSSVKVSCRSSGGTFSTYGITWVRQAPGQGLEWMGRIIPSLGIPNYAQKFQGRVTITADTSVSTAWMELSSLESDDTAIYYCARENIDLATNDFWGQGTLVTVSS
VL: QSALTQPPSASGSPGQSVTISCTGTSRDIGAYGYVSWYQQVPGKAPKLIIYEVRNRPSGVSSRFSGSKSGNTASLTISGLQAEDEADYYCSSYTSSSTLDVVFGGGTKLTVL
B13: Ab_16 (scFv, V domains shown)
VH: QVQLVQSGGGVVQPGRSLRLSCAASGFTFSNYGMHWVRQAPGKGLEWVALIWERGSKKDYADSVKGRFTVSRDNSKNTLYLQMNSLRPEDTAVYFCAREGISMTGAEYFQHWGQGTLVTVSS
VL: QSVLTQPPSVSGSPGQRVTMSCTGSSSNIGAGYDVHWYQQVPGAAPRLLIYGTNNRPSGVPDRFSGSKSGTSASLTITGLQAEDEADYYCQSYDNSLTDPYVFGTGTKVTVL
B14: Ab_18 (scFv, V domains shown)
VH: EVQLVQSGGGVVQPGRSLRVSCAASGFSFSRYGMHWVRQAPGKGLEWVAFIRHDGSKKYYADSVEGRFTISRDNSRNTVSLEMNSLRGEDTAVYYCAKDGRLEAALDDWGQGTLVTVSS
VL: NFMLTQPHSMSGSAGKTVTVSCIRSSGSIANNFVQWYQQRPGSAPTTVIYEDNQRPSGVPDRFSGSIDSSSNSASLTISGLKTEDEADYYCQSYDSSNLVFGGGTRLTVL
B15: Ab 26 scFv-Fc (scFv, V domains shown)
VH: QVQLVQSGGGLVQPGRSLRLSCAASGFTFDDYAMHWVRQVPGKGLEWVSGIDWNSGVIGYADSVKGRFTISRDNAKNSLYLQMNSLRAEDTALYYCAKDAYSYGFLGAFDIWGQGTMVTVSS
VL: LPVLTQPPSVSVAPGQTASITCGGDNIRTKGVHWYQQKPGQAPLLVIYYASDRPSGIPERFSGSSSGNTATLTISRVEAGDEADYYCQVWDSSSDLVVFGGGTTLTVL
B16: Ab 19 scFv-Fc (scFv, V domains shown)
VH: EVQLVESGAEVKKPGESLKISCKGSGYSFTSYWIGWVRQMPGKGLEWMGIIYPGDSDTRYSPSFQGQVTISADKSISTAYLQWSSLKASDTAMYYCARRGDLDAFDIWGQGTMVTVSS
VL: QPGLTQPPAASGTPGQRVTVSCSGASANIGSNAVSWFKQFPETAPRLLISGNTHRPSGVPDRVSGSKSGTSASLTISGLQSDDEADYYCAAWDDSLNGYVFGSGTKVTVL
B17: Ab 27 scFv-Fc (scFv, V domains shown)
VH: QVQLVQSGTEVKKPGASVKVSCKASGYSFTGSHLHWVRQAPGQGLEWMGWINPDSGVINYAQKFQGRVTLTRDTSISTAYMELSGLRSDDTAVYYCARDKAIGYVWALDYWGQGTLVTVSS
VL: QSALTQPPSVSGSPGQSVTISCTGTSSDVGTYNRVSWYQQPPGKAPKLMIYEVSNRPSGVSNRFSGSKSGNTASLTISGLQAEDEADYYCSSYTRTFTYVFGTGTKVTVL

What was measured:
[1] = biological target: biotinylated RBD (BLI sensors) (UniProt P0DTC2 319-537); assay: BLI
[2] = biological target: SARS2 spike on transduced 293T cells (UniProt P0DTC2 14-1273); assay: FACS

| Binder | Kd [1] [pM] | EC50 [2] [pM] |
| --- | --- | --- |
| B1 | 223 |  |
| B2 | 166 |  |
| B3 | 1900 |  |
| B4 | 1480 |  |
| B5 | 882 |  |
| B6 | 911 |  |
| B7 | 6610 |  |
| B8 | 922 |  |
| B9 |  | 582 |
| B10 |  | 5.88 |
| B11 |  | 23.7 |
| B12 | < 1 |  |
| B13 | 959 |  |
| B14 | 2310 |  |
| B15 | 704 |  |
| B16 | 533 |  |
| B17 | 906 |  |
